Values of other authors in publication PMC6669380.

Target: SLP-76 RxxK motif (Homo sapiens) (UniProt Q13094)

Gads C-terminal SH3 (from UniProt O75791)
Kd: 0.0145 µM
